Reference: US11219221B2 (FarmHannong Co., Ltd., priority 2017, dated 2022)
Positions count from the first letter of the chain named. Names and notes keep the numbering of the source.

B1: V305M + F360M: CyPPO16 variant (protein)
chain: MLDSLIVGAGISGLSAAHTLQKQQTQFLVTESQGRVGGNITTNRQGDYLWEEGPNSFAPTEDLLRLAVEVGLKEDLVFADRRLPRFVYWNQQLHPVPMSPPAALKTQLLSEAGKWRAALGALGFVGGLVGREEETVRQFFTRHLGTEVTERLVAPFVSGVYAGDVDQLSAQAAFRRVFEFAQLGGGLAAGGILARRQAPPKAPPDPSLPETKTGQLGSFREGLEMLPRAIASQLGDRLKLQWRLTHLEITPQQTYLAHFNTPDGPQQIATRTLILTTPAPITADLLKPLTPALHGVLKEIYYPPMACVVLAYPRAASARPLEGFGHLIPRNQGIRTLGTIWSSCLFPGRTPEGEHLLTNMIGGATDPGIAQLDPEEIAQAVHQDLCKILIRPEFTPKILAVRLWKQAIPQYTLGHLQRLATLEQELSKFPGLHILANYTDGVALGDCVKRGVAVAQKIRSRE
modifications: Synthetic (Protoporphyrinogen IX oxidase (CyPPO16) of Spirulina subsalsa)
notes: CyPPO16 variant
B2: A162L + V305M + F360M (protein)
chain: B1 chain with A162L
modifications: Synthetic (Protoporphyrinogen IX oxidase (CyPPO16) of Spirulina subsalsa)
B3: F324V: CyPPO16 variant (protein)
chain: B1 chain with M305V, F324V, M360F
modifications: Synthetic (Protoporphyrinogen IX oxidase (CyPPO16) of Spirulina subsalsa)
notes: CyPPO16 variant
B4: V160C + A162C + V305M + L327T + F360M (protein)
chain: B1 chain with V160C, A162C, L327T
modifications: Synthetic (Protoporphyrinogen IX oxidase (CyPPO16) of Spirulina subsalsa)
B5: A162C + V305M + L327T + F360M (protein)
chain: B1 chain with A162C, L327T
modifications: Synthetic (Protoporphyrinogen IX oxidase (CyPPO16) of Spirulina subsalsa)
B6: V305M: CyPPO16 variant (protein)
chain: B1 chain with M360F
modifications: Synthetic (Protoporphyrinogen IX oxidase (CyPPO16) of Spirulina subsalsa)
notes: CyPPO16 variant
B7: F360T: CyPPO16 variant (protein)
chain: B1 chain with M305V, M360T
modifications: Synthetic (Protoporphyrinogen IX oxidase (CyPPO16) of Spirulina subsalsa)
notes: CyPPO16 variant
B8: R85A: CyPPO16 variant (protein)
chain: B1 chain with R85A, M305V, M360F
modifications: Synthetic (Protoporphyrinogen IX oxidase (CyPPO16) of Spirulina subsalsa)
notes: CyPPO16 variant
B9: R85A + V160C + A162C + V305M + L327T + F360M: CyPPO16 variant (protein)
chain: B1 chain with R85A, V160C, A162C, L327T
modifications: Synthetic (Protoporphyrinogen IX oxidase (CyPPO16) of Spirulina subsalsa)
notes: CyPPO16 variant
B10: V305M + L327T + F360M (protein)
chain: B1 chain with L327T
modifications: Synthetic (Protoporphyrinogen IX oxidase (CyPPO16) of Spirulina subsalsa)
B11: R85A + V160C + A162L + V305M + F360M (protein)
chain: B1 chain with R85A, V160C, A162L
modifications: Synthetic (Protoporphyrinogen IX oxidase (CyPPO16) of Spirulina subsalsa)
B12: L327T: CyPPO16 variant (protein)
chain: B1 chain with M305V, L327T, M360F
modifications: Synthetic (Protoporphyrinogen IX oxidase (CyPPO16) of Spirulina subsalsa)
notes: CyPPO16 variant
B13: F360V: CyPPO16 variant (protein)
chain: B1 chain with M305V, M360V
modifications: Synthetic (Protoporphyrinogen IX oxidase (CyPPO16) of Spirulina subsalsa)
notes: CyPPO16 variant
B14: F360M: CyPPO16 variant (protein)
chain: B1 chain with M305V
modifications: Synthetic (Protoporphyrinogen IX oxidase (CyPPO16) of Spirulina subsalsa)
notes: CyPPO16 variant

Legend:
[1] = test system: CyPPO16; assay: Herbicide tolerance test of CyPPO16 wild type and variants in PPO-deficient E. coli BT3(ΔPPO); type: cell-based, Spirulina subsalsa; conditions: BT3(ΔPPO) transformants, two or more amino acid mutations, dark; for Herbicide tolerance, tiafenacil: 37° C., 16 to 20 hours, relative to wild type at highest concentration (50, 200 μM); for Herbicide tolerance, flumioxazin: relative to wild type at highest concentration (25, 50 μM); for Herbicide tolerance, sulfentrazone: relative to wild type at highest concentration (2000, 4000 μM)
Method: The mutated CyPPO gene obtained from the Example 2 was transformed to BT3 (ΔPPO) strain which is deficient of PPO activity and cultured in LB media with PPO-inhibiting herbicide, thereby examining whether growth of transformed BT3 was not inhibited.
BT3 competent cells were transformed with the pET303-CyPPO16 and pET303-CyPPO17 plasmids and those with a mutation(s) constructed in Example 2 respectively, and were cultured in LB agar media containing carbenicillin (Gold Biotechnology, Co., Ltd.).
Single colony of E. coli transformed with each CyPPO gene was cultured in 3 ml of LB broth containing carbenicillin overnight, and then was subcultured until absorbance (0D600) reached 0.5 to 1. Then, it was diluted with LB broth to OD600=0.5. Again, the diluted solution was serially diluted 4 times by a factor of one tenth.
The LB agar media (LB 25 g/l, Bacto agar 15 g/l) containing carbenicillin (100 μg/ml) and 0 to 4,000 μM of various herbicides dissolved in DMSO was prepared. Next, 10 μl of each diluted solution was dropped on the plate and cultured at 37° C. under light (Tables 7 and 9, FIGS. 2 to 6, and 18 to 22) or dark (Tables 8 and 10, FIGS. 7 to 17, and 23 to 33) for 16 to 20 hours. Then, extent of tolerance was evaluated.
The extent of herbicide tolerance of the mutated genes was evaluated by comparing that of mutated genes with that of wild type. The relative tolerance was represented with “+” as a factor of 10 times. Evaluation result was listed in Tables 7 to10 and FIGS. 2 to 33:
In Tables 7 to 10, tolerance level was presented as of tolerance of wild type and of variants equivalent to that of wild type, and was done as ‘+’ per each 10 fold resistance until ‘+++++’ as maximal resistance. (Tolerance level was evaluated by relative growth level of variants to that of wild type in the media containing highest concentration of herbicide; ‘+’=1-9 fold higher tolerance, ‘++’=10-99 fold higher tolerance, ‘+++’=100-999 fold higher tolerance, ‘++++’=1,000-9,999 fold higher tolerance, ‘+++++’=more than 10,000 fold higher tolerance)
The concentrations of herbicides were written above the photographs of tolerance test. A dilution series (0D600=0.5, 0.05, 0.005, 0.0005, 0.00005) was made and spotted on LB agar plates supplemented with herbicides.

[2] = test system: CyPPO16; assay: PPO enzyme activity of MBP-fused CyPPO16 wild type and variants; type: biochemical, Spirulina subsalsa; conditions: PPO enzyme activity relative to wild type; MBP-fused protein, 50 μM protoporphyrinogen IX, room temperature, 30 min
Method: Thus, PPO proteins of wild type and variants were expressed as fused to MBP and were used for experiments.
The following process for purification of PPO protein was performed in a 4° C. cold room. Amylose resin (NEB) was packed to 1.5×15 cm column (Bio-Rad, Econo Columns 1.5×15 cm, glass chromatography column, max. vol), and the obtained protein extracts were loaded to the column at a flow rate of 0.2 ml/min. The column was washed with 3 column volumes of buffer and the presence of protein in the washing solution was examined. When the protein was no longer detected, the washing procedure was terminated. Then, the MBP-PPO protein was eluted with approximately 2 column volumes of buffer containing 20 mM maltose. The protein concentration of each eluent was determined and the elution was stopped when the protein was no longer detected. Ten microliter of each fraction was investigated for protein quantification and SDS-PAGE analysis. The highly pure fractions of PPO protein variants were used for the enzyme assay.
Since protoporphyrinogen IX, a substrate of PPO protein, was not commercially available, it was chemically synthesized in the laboratory. Overall process was performed in dark under nitrogen stream. […] of protoporphyrin IX was dissolved in 20 ml of 20% (v/v) EtOH, and stirred under dark condition for 30 minutes. The obtained protoporphyrin IX solution was put into a 15 ml screw tube in an amount of 800 μl, and flushed with nitrogen gas for 5 minutes. To this, 1.5 g of sodium amalgam was added and vigorously shaken for 2 minutes. The lid was opened to exhaust hydrogen gas in the tube. Thereafter, the lid was closed and incubated for 3 minutes. The protoporphyrinogen IX solution was filtered using syringe and cellulose membrane filter. […] To determine the enzyme activity of PPO protein, a reaction mixture was prepared with the following composition (based on 10 ml): 50 mM Tris-Cl (pH 8.0); 50 mM NaCl; 0.04% (v/v) Tween 20; 40 mM glucose (0.072 g); 5 units glucose oxidase (16.6 mg); and 10 units catalase (1 μl).
Hundred and eighty microliters of a reaction mixture containing the purified PPO protein were placed in 96 well plates and 20 μl of […] were added. […] The reaction proceeded at room temperature for 30 min and the fluorescence of protoporphyrin IX was measured using Microplate reader (Sense, Hidex) (excitation: 405 nm; emission: 633 nm). […] To this, 2.7 N HCl was added, and the absorbance at 408 nm was measured. A standard curve was generated using standard protoporphyrin IX, and PPO activity was measured by calibration of protoporphyrin IX using the standard curve of protoporphyrin IX.
Activities of variants were presented relatively compared to that of wild type.

Molecule | Herbicide tolerance, tiafenacil [1] | Herbicide tolerance, flumioxazin [1] | Herbicide tolerance, sulfentrazone [1] | Activity (%) [2] [%]
B1 | +++ (‘+++’=100-999 fold higher tolerance) | ++++ (‘++++’=1,000-9,999 fold higher tolerance) | + (‘+’=1-9 fold higher tolerance) | 35
B2 | +++++ (‘+++++’=more than 10,000 fold higher tolerance) | +++++ (‘+++++’=more than 10,000 fold higher tolerance) | ++++ (‘++++’=1,000-9,999 fold higher tolerance) | –
B3 | – | – | – | 23
B4 | +++++ (‘+++++’=more than 10,000 fold higher tolerance) | +++++ (‘+++++’=more than 10,000 fold higher tolerance) | +++++ (‘+++++’=more than 10,000 fold higher tolerance) | –
B5 | +++++ (‘+++++’=more than 10,000 fold higher tolerance) | +++++ (‘+++++’=more than 10,000 fold higher tolerance) | ++++ (‘++++’=1,000-9,999 fold higher tolerance) | –
B6 | – | – | – | 72
B7 | – | – | – | 25
B8 | – | – | – | 94
B9 | – | – | – | 13
B10 | +++++ (‘+++++’=more than 10,000 fold higher tolerance) | +++++ (‘+++++’=more than 10,000 fold higher tolerance) | ++++ (‘++++’=1,000-9,999 fold higher tolerance) | –
B11 | +++++ (‘+++++’=more than 10,000 fold higher tolerance) | +++++ (‘+++++’=more than 10,000 fold higher tolerance) | +++++ (‘+++++’=more than 10,000 fold higher tolerance) | –
B12 | – | – | – | 68
B13 | – | – | – | 69
B14 | – | – | – | 83
